Measured values from US11191771B2, “Combinations of PBD-based antibody drug conjugates with FLT3 inhibitors” (Seagen Inc., priority 2016, dated 2021).

System: FLT3/ITD MV4-11 xenografts
Assay: Survival of FLT3/ITD MV4-11 xenografts
Assay type: in vivo
Settings: MV4-11 s.c. in SCID mice, quizartinib 0.4 mg/kg daily for 21 days by mouth
Method: Five million MV4-11 cells were implanted subcutaneously in SCID mice. Tumor growth was monitored throughout the course of the study with bilateral vernier caliper measurements, and mean tumor volumes were calculated using the equation (0.5×[length×width^2]).
Mice with advanced tumor burden were sacrificed upon reaching tumor volumes of greater than 400 mm^3 or showing symptoms of hind limb paralysis, cranial swelling, and/or moribundity.

B1: SGN-CD33A: h2H12EC antibody conjugated to SGD-1910, the pyrrolobenzodiazepine dimer drug-linker (conjugate, chains of the INN, looked up)
VH: QVQLVQSGAEVKKPGASVKVSCKASGYTFTNYDINWVRQAPGQGLEWIGWIYPGDGSTKYNEKFKAKATLTADTSTSTAYMELRSLRSDDTAVYYCASGYEDAMDYWGQGTTVTVSS
VL: DIQMTQSPSSLSASVGDRVTINCKASQDINSYLSWFQQKPGKAPKTLIYRANRLVDGVPSRFSGSGSGQDYTLTISSLQPEDFATYYCLQYDEFPLTFGGGTKVEIK
modifications: PBD dimer payload (talirine)
With B1 the “effect on progression / survival” value (ADC 10 mcg/kg once i.p., FIG. 5) was “induced delay of progression” and the median survival time (SGN-CD33A or SGN-CD123A 10 mcg/kg once i.p., untreated 23 days) was 31 days.
